{"source": "the DeepSol protein solubility set"}
{"assay": "soluble on expression in E. coli; label from the status in PepcDB or PDB records"}
{"sequence": "GAMVVSPAGADRRIPTWASRVVSGLARDRPVVVTKEDLTQRLTEAGCGRDPDSAIRELRRIGWLVQLPVKGTWAFIPPGEAAISDPYLPLRSWLARDQNAGFMLAGASAAWHLGYLDRQPDGRIPIWLPPAKRLPDGLASYVSVVRIPWNAADTALLAPRPALLVRRRLDLVAWATGLPALGPEALLVQIATRPASFGPWADLVPHLDDLVADCSDERLERLLSGRPTSAWQRASYLLDSGGEPARGQALLAKRHTEVMPVTRFTTAHSRDRGESVWAPEYQLVDELVVPLLRVIGKA", "soluble on expression in E. coli": "soluble"}
{"sequence": "VVTCATDGNHGRSVAWGAQMFGCGCIIYIHRDVSEGRKVAMEAFDAEVIRITGNYDESVRQAGADAKAHGRIIVSDTSYEGYMEVPKDVALGYTVMLAETVEQLDGEIPTHVFVQGGVGGLASAVAGYFWDLWGDRRPRFVVVEPEQANCLQLSAKAGEPVVVKGDLDTLMAGLACGEVSLLAWQILSNGADDFMTLSEDAIADTMSLLAKGYKGDPAIEAGESAVPGLAAAINARAQDTFAKALNLDAQSKVLVIGTEGAT", "soluble on expression in E. coli": "not soluble"}
{"sequence": "AIFGGDGFKDWIGEFSLFKELNEATEMFGKEDEEGTAATETEKADESTDGGMVKHDTNKAESLKKDKLSKEQREKLMEMEKKRREDMMKQVDELAEKLNEKISRYLIAVKSNNLEEFTRKLDQEIEDLKLESFGLELLYLLARVYKTKANNFIMSKKTYGISKIFTGTRDNARSVKSAYNLLSTGLEAQKAMEKMSEVNTDELDQYERAKFESTMAGKALGVMWAMSKFELERKLKDVCNKILNDKKVPSKERIAKAKAMLFIAHKFASARRSPEEAEEARVFEELILGEQEKEHKKHTVAR", "soluble on expression in E. coli": "not soluble"}
{"sequence": "MEVCSTVTTKKLSSLAKLILFTIQKVSDASRHKLLTTLDPHLLAKRGKILRKSLNEAVSTSHSRITCRPSDHQDVRSSFISPVPLQLEYEFSCSSTPPRRSYATTVSKGRRSNGSHNRPLINKRQRQAYIRYNTLPKVRDSIWDRHVAAAVFPDVASSTGTMESCHVDRAAEEFIQSFYRQLRLQKWMMAQEV", "soluble on expression in E. coli": "not soluble"}
{"sequence": "MADQEHIDAGLLSTNFDMIQALPLNVKQRVCALKNLQMKTIQIESDFYKRVHELEIEFEGKFKSTFDQRKAIVAGEVEPTKEQIDTPILEGLEGDQLAELYKAAEADPSAKGIKDFWLTALRTHDLVAEAIEEHDVPILSYLTDVTTAASKDPAGFKIEFHFATNPYFKNQVLTKTYLLGFDPDAEAPLQFDGPHVIRAVGDTIEWEDGKNVTKKAVKKKQKKGANAGKFLTKTVKADSFFNFFEPPKSKDERNEDEDDEQAEEFLELDYEMGQAIRDTIIPRAVLFYTGELQSDDMFDFPGEDGDDVSDFSDDEA", "soluble on expression in E. coli": "soluble"}
{"sequence": "SMNNKEVELYGGAITTVVPPGFIDASTLREVPDTQEVYVNSRRDEEEFEDGLATNESIIVDLLETVDKSDLKEAWQFHVEDLTELNGTTKWEALQEDTVQQGTKFTGLVMEVANKWGKPDLAQTVVIGVALIRLTQFDTDVVISINVPLTKEEASQASNKELPARCHAVYQLLQEMVRKFHVVDTSLFA", "soluble on expression in E. coli": "soluble"}
{"sequence": "MSETELVGKDELLKAMTMCNSCPDFNLNDLRGKGDNNYQLYDWLIHNLPTAQYVLGKLVELIFSNNLTTGDEKQDEILNNFLYGQTNPEGVTNYHVLVQSIKESIVYGRSGLRFLSKDDGLINVKCNHFGVAQILNKEHYGYKELIGFVIDKKGRAITDVDLREGEIDSEEYFKKGIFVFKNNDNILLPPEKFVNLRVDTSTPKGSSVFDSDIQRVLLIASVYKRLLYDIEYDGAGRLIFWADNANSNEESSNNFLNDTESATKRRQDKYKKEVEEIMKLVKDSNSTSVLAVSNAFKKMDHLPRVTKATEFLSYLNQEGEIMAQVFGVPNVLLGLGKISGNISMEKVIDNAMLNSIIPLRENIATQISSILTNNLKVPKVYFDKYELKSQSDINDRRLKVLTVAERLKALGKEDLANKIIEEEIQL", "soluble on expression in E. coli": "not soluble"}
{"sequence": "MISVFDIYKIGVGPSSSHTVGPMKAGKEFIDDLRAMGKLRDITKITVDVYGSLSLTGKGHHTDIAIIMGLAGNSPEKVDIDSIPGFIARVEETERLPVGMHCHTVSFPREGGMNFHKTNLELHENGMQIHAWIDDEKVYSKTYYSIGGGFIVDEENFGK", "soluble on expression in E. coli": "not soluble"}
{"sequence": "MSATEKDKTPLLGVSQPISLAHPDSKDIAQTTLLIETLKKFGSYEPKEETEQRMEVLRNLNRLVKEWVKNVTAMKIPNGEGVNAGGKLFTFGSYRLGVHSSGADIDTLAVVPRHIDRSDFFTSFKEMLNNDPNVTELHGVEEAFVPVMKLKYSGVELDILFARLALKEVPDTQELSDDNLLRNLDQESVRSLNGCRVAEQLLKLVPRQKEFCVTLRAIKLWAKNHGIYSNSMGFFGGITWAILVARACQLYPNASPSRLVHRMFFIFSTWTWPHPVVLNEMNNDRNDIPTLCELVWDPRRKNTDRFHVMPIITPAFPEQNSTHNVTRSTATVIKNEICEALEICRDISEGKSKWTALFEEVNFFSRYKHFIALIMAAPNEEEELNYGGFLESRIRLLVQSLERNQDIIIAHNDPNKHKPSPNAKFDVNPENKRVTVWFIGLEFAEHAKTLDLTNEIQRFKTNVELQASNVKGIGPNCQVQIDMFYVKRNSLIQVISAADLRRGRRWKKVVPIATNTSVSSSTPRSVVRTTSTSSVPTTPTGLAAPKTPLSASVSATNEPDSTTNGTPLSRKRSMDEESSTTVTSQISDESVPKKKTRDDTLEENRVSMVVEVSNVVVEQRTKVVQEIVDLQADNGLNTSNGLEASEQKMEVPQSV", "soluble on expression in E. coli": "not soluble"}
{"sequence": "MGSDKIHHHHHHAACADNADLNEPAGSTTPPAQVLNATVKNLPGAAIIYYDLPDDQNLKYVRASYKVDNMVRTVNASFYTDSLVVEGFPTKGEYDIELYSVSYGEVVSSPLVVKVNPDTPPYQKVRGTLVSAETFGGIRVNFDNPEKAKLGLGVIKKQAEGIWTQVYMHYTEAKGGDFYVRGLDAVTTDFGIFVRDRWGHLSDTLYVTETPLYEEQCDKSLFRKMALPTDSYECHSWNEVTKGNDMTRLWDGITDADPCFQTKTTTVMPQWFTFDMGENYKLSRFVMVSRYYPGKYGNTFKAGHPKHFEIWGSINPNPDGSFDDSWVLLSEYESVKPSGGGVNDALTAEDQEAAKNGENFIIPDNAPAVRYIRFRTNNTWGNTRYMHLHELTFFGAKHN", "soluble on expression in E. coli": "not soluble"}
{"sequence": "MGSDKIHHHHHHMQTLTIDVGGSKALFELQLAGHTEQYKIPTGEGFKIEELNNQIAALERDYDLQDYQLAIAVPGLVQHHRLVACKSLPGLNGLSIDTVKTQGTLKIISNDIDAGMQALCDAKYACELLVMCGSGIGMSIAFNGQVFSGATGVAGELGHCRIMSESGEFRLEQLASGDSVRSRNITSQEDLYRAGSYLGMGLAWAVNLLNPNRIWLAGGMMNSTPYYKGCIDNLKRMALSAPLAEMKIHRVDDMETLVCRGLSVILARDVSLT", "soluble on expression in E. coli": "not soluble"}
{"sequence": "MGSDKIHHHHHHMTQELTFSIKSLRFDEDYRPAANTRNTTNFANLARGQRRQENLRNTLAMINNRFNDLAHWDNPKRDRYAVELDIISVEMKIGERDTGDAFPLIEILQPSILDQTTGARIDGIAGNNFSSYVRDYDFSVLLPAHNQDTSSFSLPEGFGSLHGTLFKQFVNSDTYTARFAKPPVICISVSSSKVYHRTGNRHPILGVEYRQDAFSLTDQYFEKMGLQVRYFMPPNSVAPLAFYFLGDLLNDYTNLELIGTISTMETFQKIYRPEIYNANSAAGTIYQPSLKHQDYSATQIVYDRQERSQLAVTQGKFTQEHFIKPYGDILEQWASSHAFSSTPTQDIAHHE", "soluble on expression in E. coli": "not soluble"}
{"sequence": "MGSDKIHHHHHHMTVSQVSTGTGLGTRHVAFDWGGVFTVGTFDGRSTQNVAERSGVPVEKVRESYFRHIRQLEVGAWTLPQFWETVQQETGMTLPYADFEALYLGSIHDNAPMYTTLAALPRSVRVGLLSNNYPVVSEHLGRDPRFARFDALVFSNEIGHKKPAPEAFAALEQKMGLPAAQVAFVDDVQENIDAAGAFGFHGILYHHDAHERFEQELKEWLRG", "soluble on expression in E. coli": "not soluble"}
{"sequence": "MEFDPVKINTSSIDHVTILQYIDEPNDIRLTVCIIRNINNITYYINITKINPHLANRFRAWKKRIAGRDYMTNLSRDTGIQQSKLTETIRNCQKNKNIYGLYIHYNLVINVVIDWITDVIVQSILRGLVNWYIANNTYTPNTPNNTTTISELDIIKILDKYEDMYRVSKEKECGICYEVVYSKRLENDRYFGLLDSCNHIFCITCINIWHRTRRETGALDNCPICRTRFRKITMSKFYKLVN", "soluble on expression in E. coli": "not soluble"}
{"sequence": "MSLSSPNILLTRIDNRLVHGQVGVTWTSTIGANLLVVVDDVVANDDIQQKLMGITAETYGFGIRFFTIEKTINVIGKAAPHQKIFLICRTPQTVRKLVEGGIDLKDVNVGNMHFSEGKKQISSKVYVDDQDLTDLRFIKQRGVNVFIQDVPGDQKEQIPDEGHHHHHH", "soluble on expression in E. coli": "soluble"}
{"sequence": "MSLAQEDLLAKGEYLTRAANCVACHTVPGGQPFAGGVEFKLPFGSLFSPNITPDPQTGIGAWTDDEFVSALQTGIGRDGKHYYPAFPYTSYSKMSRDDILAIKGYLDSLQPVEQAPRENHIGFPFNQRWGMVFWNLLFLNDEPFQADSQRSAEWNRGKYLVEGPGHCGECHSPRNLFQAVSSERSLAGNLIQGWNAYNISADPVHGIGAWPTDVLAGYLKDGAAPGLGLSSGPMAEVVENSLRHLTDADRQAIAVFLKDSPPRSEGVPRPQQVTLAEPGSGSALGNKLFAEACASCHRWDGTGNQSQTAMLLGLKTVNDPAASNLLGILLSGHGAADAPVNRRMPSFGNIYTDQELAALSSFMLQRFGESGAQVSVPAVAKRRTESLHEGHHHHHH", "soluble on expression in E. coli": "not soluble"}
{"sequence": "MGSDKIHHHHHHSCLDDDDSSSDSLVISTINLISPDSKDFYFTLDDGKTMFPSNGNGWISDKNKDGQRAFVIFKELEEPVKGYDYNIQVREIKEILTKEIVTMGEGENTEEKIGDDKINSTYMWITQDKKYLTIEFQYYGTHSEDKKHFLNLVINNKEAEPAADDANDEYIDLEFRHNDEGDTADRLGEGYISFKLDKIQDQMKGKKGLRIRVKTLYNGEKFYEVKFPSSN", "soluble on expression in E. coli": "not soluble"}
{"sequence": "MGSDKIHHHHHHMPRKTTSLCRRILLENYTTRGEKMITNLSDRVFVIGTGTSANSVLVCGKKFCVLFDSTLFPEKARKIKEFAAEILGKEIAVVFNTHYHPDHTFGNEVFDRIISHSLTRKSLEEMDEEYIRKIGVEVSLKFPDETFSERENYRFGDIVVEAVHLGGHTPDSSIFVLKNEKIVICGDLLTTGIHAEIVTDSDLFGWIEALSEIEKIRADYFVPGHGKVGTIEDVRNMKDYISKVLRFREGSVKHSELLEDPNFINREHPELLTWGLENIIR", "soluble on expression in E. coli": "not soluble"}
{"sequence": "MKTLIEIKQTPDGIIKADKVFNKVKDKISLPNRILYLGCGSSHFLSKLLAMVTNMHGGLGIALPCSEFLYSKETYPIGEVELAVGISRSGETTEILLALEKINVKKLGITTRESSLTRMCDYSLVVPAIEESVVMTHSFTSFYFAYLQLLRYSYGLPPLNAGEISKATEKSLEYERYIREIVESFDFQNIIFLGSGLLYPVALEASLKMKEMSIFWSEAYPTFEVRHGFKAIADEKTLVVLMVEEPFEWHEKLVKEFKNQGAKVLVISNSPQDLGQDYSIELPRLSKDANPIPYLPIVQLLSYYKAVSRGLNPDNPRFLDKVVRW", "soluble on expression in E. coli": "soluble"}
{"sequence": "MNFVTLTSDEFNAFTTKHFSHYTQSAIHYNHRVDLKGDVHLVGVKDDNGQVIAGCLLTEARTLKFFKYFYTHRGPVMDYTNQSLVAFFFKALTSYLKKHNCLYVLVDPYLIENLRNADGEIVKSYDNRAFVRTMDKLGYKHQGFPVGYDSMSQIRWLSVLDLKDKTEDQLLKEMDYQTRRNIKKTYDIGVKTKTLTIDETQTFFDLFHMAEEKHGFKFRELPYFEEMQKLYDDHAMLKLAYIDLNEYLKTLQLKQQQLTAELSGVEEALEESPNSKKNKTKRTQLEQQLNSNKRKIDNTIEQIEQDGAVLNLASALFIYNEHEVYYLSSGSNPKYNAYMGAYHLQWEMIKFAKAHHIDRYNFYGITGDFSESSEDYGVQQFKKGFNAHVEEYIGDFIKPIKPLLYKVQTYLNHKRR", "soluble on expression in E. coli": "not soluble"}
